According to US20090297479A1:
Values belong to the substance of their own block, whether it stands above or below them.

Experiments:
[1] = biological target: syndecan-4 (SD-4), human (human) (UniProt P31431); assay: cell-based or functional assay
[2] = biological target: PD-1 on human peripheral blood CD4+ T cells (human) (UniProt Q15116); assay: cell-based or functional assay
Chain of PD-1 on human peripheral blood CD4+ T cells (human) (Q15116 25-288): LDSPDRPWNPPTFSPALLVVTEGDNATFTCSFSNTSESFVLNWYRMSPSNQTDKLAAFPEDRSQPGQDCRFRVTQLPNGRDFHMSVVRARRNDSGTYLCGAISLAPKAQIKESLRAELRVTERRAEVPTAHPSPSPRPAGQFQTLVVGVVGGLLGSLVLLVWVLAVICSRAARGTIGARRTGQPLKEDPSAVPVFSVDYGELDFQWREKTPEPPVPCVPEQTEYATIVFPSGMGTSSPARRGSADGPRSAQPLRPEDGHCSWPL

Chain of syndecan-4 (SD-4), human (human) (P31431 19-198): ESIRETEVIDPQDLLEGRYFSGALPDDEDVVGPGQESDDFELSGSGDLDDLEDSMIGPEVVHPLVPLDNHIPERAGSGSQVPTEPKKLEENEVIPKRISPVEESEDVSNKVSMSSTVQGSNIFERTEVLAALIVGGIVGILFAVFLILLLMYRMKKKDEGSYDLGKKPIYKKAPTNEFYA
Chain of saporin-conjugated DC-HIL (human DC-HIL-Fc, biotinylated and conjugated with streptavidin-saporin) (Q14956 23-498): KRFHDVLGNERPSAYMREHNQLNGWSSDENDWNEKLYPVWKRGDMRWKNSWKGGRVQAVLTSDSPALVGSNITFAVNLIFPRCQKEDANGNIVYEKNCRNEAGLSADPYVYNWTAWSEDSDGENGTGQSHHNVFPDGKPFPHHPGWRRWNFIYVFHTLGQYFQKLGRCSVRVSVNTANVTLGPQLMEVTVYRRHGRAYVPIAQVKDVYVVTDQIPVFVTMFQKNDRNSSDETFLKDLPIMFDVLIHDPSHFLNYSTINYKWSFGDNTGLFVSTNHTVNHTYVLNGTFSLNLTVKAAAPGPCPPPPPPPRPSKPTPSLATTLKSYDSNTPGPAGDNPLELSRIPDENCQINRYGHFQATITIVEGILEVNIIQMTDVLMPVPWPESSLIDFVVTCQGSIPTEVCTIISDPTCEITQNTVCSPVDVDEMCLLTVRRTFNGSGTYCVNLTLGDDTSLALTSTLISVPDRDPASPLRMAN

Substance: saporin-conjugated DC-HIL (human DC-HIL-Fc, biotinylated and conjugated with streptavidin-saporin) (from UniProt Q14956 23-498)
proliferation (3H-thymidine) of HUT-78 cells [1]: 60 % reduction

IL-2 production by HUT-78 cells triggered by anti-CD3 Ab [1]: < 70%
Substance: human DC-HIL-Fc (extracellular domain of human DC-HIL fused to the Fc portion of mouse IgG2a) (from UniProt Q14956 23-498) (Fc fusion)

inhibition of proliferation induced by 0.3 µg/ml anti-CD3 Ab, Ab at 40 µg/ml [2]: 50 % inhibition
reduction of T cell proliferation at 0.1 µg/ml anti-CD3 Ab [2]: 50%
reduction of T cell proliferation at the highest dose (3 µg/ml) of anti-CD3 Ab [2]: 10%
Substance: anti-PD-1 Ab (MIH4) (antibody)
